17 molecules from US10421817 (BEIJING MABWORKS BIOTECH, dated 2019) can be followed below.

The target of experiment [1] is T1, human Claudin 18.1 (human, UniProt P56856 1-261).
T1 construct: Overexpressed on HEK293A cells by lentivirus
In words: FACS on HEK293A/hClaudin 18.1 cells.

Experiment [2] deals with T2, human Claudin 18.1 Mutant 15 (Claudin 18.1/S42A/Q45N/Q56E) (human, UniProt P56856 1-261).
T2 chain: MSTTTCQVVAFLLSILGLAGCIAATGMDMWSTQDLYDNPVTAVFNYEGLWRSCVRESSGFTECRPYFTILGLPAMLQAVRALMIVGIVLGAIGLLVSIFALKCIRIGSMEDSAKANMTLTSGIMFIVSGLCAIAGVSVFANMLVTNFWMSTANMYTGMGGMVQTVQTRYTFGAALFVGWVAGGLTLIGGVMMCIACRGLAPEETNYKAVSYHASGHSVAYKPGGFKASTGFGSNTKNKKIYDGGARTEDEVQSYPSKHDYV
In words: FACS on HEK293A cells expressing mutant 15.

The target of experiment [3] is T1, human Claudin 18.1. In words: FACS on HEK293A cells expressing human Claudin 18.1 WT.
Experiment [4] deals with T3, human Claudin 18.1 Mutant 16 (Claudin 18.1/S42A/Q45N/E47Q/Q56E) (human, UniProt P56856 1-261).
T3 chain: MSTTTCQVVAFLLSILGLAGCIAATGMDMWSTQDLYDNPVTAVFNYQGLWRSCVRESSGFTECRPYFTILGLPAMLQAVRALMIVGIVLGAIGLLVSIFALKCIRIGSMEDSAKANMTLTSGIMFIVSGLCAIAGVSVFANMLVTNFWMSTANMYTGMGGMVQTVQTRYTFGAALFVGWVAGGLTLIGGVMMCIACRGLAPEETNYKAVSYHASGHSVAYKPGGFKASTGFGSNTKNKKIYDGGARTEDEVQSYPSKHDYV
Nature of the experiment: FACS on HEK293A cells expressing mutant 16.

Experiment [5] deals with human Claudin 18.1 Mutant 14 (Q56E) (human, UniProt P56856 1-261). In words: FACS on HEK293A cells expressing mutant 14.
Another experiment deals with T4, human Claudin 18.2 (human).
T4 construct: Overexpressed on HEK293A or MC38 cells by lentivirus; endogenous on KATO-III and NUGC-4 cells
In words: FACS on HEK-293A cells expressing human Claudin 18.2.

T1 sequence (P56856 whole entry): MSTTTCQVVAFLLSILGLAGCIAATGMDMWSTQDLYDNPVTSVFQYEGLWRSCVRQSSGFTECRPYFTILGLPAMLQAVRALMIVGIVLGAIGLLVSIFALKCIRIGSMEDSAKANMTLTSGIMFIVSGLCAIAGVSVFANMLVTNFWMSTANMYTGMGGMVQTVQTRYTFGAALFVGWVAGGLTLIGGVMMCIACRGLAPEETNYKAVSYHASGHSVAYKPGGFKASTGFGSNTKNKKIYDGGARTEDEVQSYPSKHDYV

B1: 18F2-66VH6VL3 (antibody, human IgG1, kappa)
heavy: not shown
light: DIVMTQSPSSLTVSLGEKATISCKSSQSLLNSGNQKNYVTWYQQKPGQPPKLLIYWSSTRSFGVPDRFSGSGSGTDFTLTISSLQAEDLAVYYCQNDYTYPFTFGSGTKLEIKRTVAAPSVFIFPPSDEQLKSGTASVVCLLNNFYPREAKVQWKVDNALQSGNSQESVTEQDSKDSTYSLSSTLTLSKADYEKHKVYACEVTHQGLSSPVTKSFNRGEC
notes: Humanized, human IgG1/kappa constant regions
With B1, the binding result with human Claudin 18.1 [1] is recorded as “no binding”.

B2: 18F2-66VH7VL3 (antibody, human IgG1, kappa)
heavy: not shown
light: DIVMTQSPSSLTVSLGEKATISCKSSQSLLNSGNQKNYVTWYQQKPGQPPKLLIYWSSTRSFGVPDRFSGSGSGTDFTLTISSLQAEDLAVYYCQNDYTYPFTFGSGTKLEIKRTVAAPSVFIFPPSDEQLKSGTASVVCLLNNFYPREAKVQWKVDNALQSGNSQESVTEQDSKDSTYSLSSTLTLSKADYEKHKVYACEVTHQGLSSPVTKSFNRGEC
notes: as for B1
In the case of B2, in the experiment with human Claudin 18.1 [1], the binding result is “no binding”.

B3: 18F2-30VH0VL0 (antibody, human IgG1, kappa, V domains shown)
VH: QVQLVQSGAEVKKPGASVKVSCKASGYTFTSFWLNWVRQAPGQGLEWMGNIYPSTSYTVYNQKFKDRVTMTRDTSTSTVYMELSSLRSEDTAVYYCARTWRGNSFDYWGQGTTVTVSS
VL: DIVMTQSPDSLAVSLGERATINCKSSQSLLNSGNQKNYVTWYQQKPGQPPKLLIYWGSTRSTGVPDRFSGSGSGTDFTLTISSLQAEDVAVYYCQNDYTYPFTFGQGTKLEIKR
notes: as for B1
Turning to B3, the binding result in experiment [2] is “binds”; with human Claudin 18.1 [3], “no binding”; in experiment [4], “binds”; in experiment [5] it was “binds”.

B4: 18F2-66VH4VL0 (antibody, human IgG1, kappa, V domains shown)
VH: QVQLVQSGAEVKKPGASVKVSCKASGYTFTSFWINWVRQRPGQGLEWIGNIYPSASYTVYNQKFKDRVTLTVDKSTSTVYMELSSLRSEDTAVYYCARTWRGNSFDLWGQGTTVTVSS
VL: DIVMTQSPDSLAVSLGERATINCKSSQSLLNSGNQKNYVTWYQQKPGQPPKLLIYWSSTRSFGVPDRFSGSGSGTDFTLTISSLQAEDVAVYYCQNDYTYPFTFGQGTKLEIKR
notes: as for B1
As to B4, the binding result in the experiment with human Claudin 18.1 [1] is “no binding”.

B5: 18F2-66VH2VL0 (antibody, human IgG1, kappa, V domains shown)
VH: QVQLVQSGAEVKKPGASVKVSCKASGYTFTSFWINWVRQAPGQGLEWIGNIYPSASYTVYNQKFKDRVTLTVDKSTSTVYMELSSLRSEDTAVYYCARTWRGNSFDLWGQGTTVTVSS
VL: DIVMTQSPDSLAVSLGERATINCKSSQSLLNSGNQKNYVTWYQQKPGQPPKLLIYWSSTRSFGVPDRFSGSGSGTDFTLTISSLQAEDVAVYYCQNDYTYPFTFGQGTKLEIKR
notes: as for B1
In the case of B5, the binding result with human Claudin 18.1 [1] was “no binding”.

B6: 18F2-66VH6VL0 (antibody, human IgG1, kappa, V domains shown)
VH: QVQLVQSGAEVKKPGASVKVSCKASGYTFTSFWINWVRQRPGQGLEWIGNIYPSASYTVYNQKFKDRVTLTVDKSSSTAYMELSSLTSEDTAVYYCTRTWRGNSFDLWGQGTTVTVSS
VL: DIVMTQSPDSLAVSLGERATINCKSSQSLLNSGNQKNYVTWYQQKPGQPPKLLIYWSSTRSFGVPDRFSGSGSGTDFTLTISSLQAEDVAVYYCQNDYTYPFTFGQGTKLEIKR
notes: as for B1
For B6, the binding result with human Claudin 18.1 [1] is given as “no binding”.

B7: 18F2-66VH5VL0 (antibody, human IgG1, kappa, V domains shown)
VH: QVQLVQSGAEVKKPGASVKVSCKASGYTFTSFWINWVRQRPGQGLEWIGNIYPSASYTVYNQKFKDRVTLTVDKSTSTAYMELSSLRSEDTAVYYCTRTWRGNSFDLWGQGTTVTVSS
VL: DIVMTQSPDSLAVSLGERATINCKSSQSLLNSGNQKNYVTWYQQKPGQPPKLLIYWSSTRSFGVPDRFSGSGSGTDFTLTISSLQAEDVAVYYCQNDYTYPFTFGQGTKLEIKR
notes: as for B1
Consider B7, for which, in the experiment with human Claudin 18.1 [1], the binding result is given as “no binding”.

B8: 18F2-66VH3VL0 (antibody, human IgG1, kappa, V domains shown)
VH: QVQLVQSGAEVKKPGASVKVSCKASGYTFTSFWINWVRQAPGQGLEWIGNIYPSASYTVYNQKFKDRVTLTVDTSTSTVYMELSSLRSEDTAVYYCARTWRGNSFDLWGQGTTVTVSS
VL: DIVMTQSPDSLAVSLGERATINCKSSQSLLNSGNQKNYVTWYQQKPGQPPKLLIYWSSTRSFGVPDRFSGSGSGTDFTLTISSLQAEDVAVYYCQNDYTYPFTFGQGTKLEIKR
notes: as for B1
Regarding B8, the binding result with human Claudin 18.1 [1] is given as “no binding”.

B9: 18F2-35VH0VL0 (antibody, human IgG1, kappa, V domains shown)
VH: QVQLVQSGAEVKKPGASVKVSCKASGYTFTSFWLNWVRQAPGQGLEWMGNIYPSTSYTIYNQKFKDRVTMTRDTSTSTVYMELSSLRSEDTAVYYCARTWRGNSFDYWGQGTTVTVSS
VL: DIVMTQSPDSLAVSLGERATINCKSSQSLLNSGNQKNYLTWYQQKPGQPPKLLIYWGSTRVRGVPDRFSGSGSGTDFTLTISSLQAEDVAVYYCQNDYTYPFTFGQGTKLEIKR
notes: as for B1
On to B9, for which the binding result in experiment [2] is given as “binds”; with human Claudin 18.1 [3] it was “no binding”; in experiment [4], “binds”; in experiment [5], “binds”.

B10: 18F2-35VH7VL0 (antibody, human IgG1, kappa, V domains shown)
VH: QVQLVQSGAEVKKPGASVKVSCKASGYTFTSFWLNWVKQRPGQGLEWIGNIYPSTSYTIYNQKFKDKVTLTVDKSTSTAYMELSSLRSEDTAVYYCTRTWRGNSFDYWGQGTTVTVSS
VL: DIVMTQSPDSLAVSLGERATINCKSSQSLLNSGNQKNYLTWYQQKPGQPPKLLIYWGSTRVRGVPDRFSGSGSGTDFTLTISSLQAEDVAVYYCQNDYTYPFTFGQGTKLEIKR
notes: as for B1
In the case of B10, the binding result with human Claudin 18.1 [1] is “no binding”.

B11: 18F2-66VH0VL0 (antibody, human IgG1, kappa, V domains shown)
VH: QVQLVQSGAEVKKPGASVKVSCKASGYTFTSFWINWVRQAPGQGLEWMGNIYPSASYTVYNQKFKDRVTMTRDTSTSTVYMELSSLRSEDTAVYYCARTWRGNSFDLWGQGTTVTVSS
VL: DIVMTQSPDSLAVSLGERATINCKSSQSLLNSGNQKNYVTWYQQKPGQPPKLLIYWSSTRSFGVPDRFSGSGSGTDFTLTISSLQAEDVAVYYCQNDYTYPFTFGQGTKLEIKR
notes: as for B1
As to B11, the binding result with human Claudin 18.1 [1] is given as “no binding”.

B12: 18F2-5 (antibody, human IgG1, kappa, V domains shown)
VH: QVQLQQPGAELVRPGASVKLSCKASGYTFTSFWLNWVKQRPGQGLEWIGNIYPSTSYTVYNQKFKDKATLTVDKSSSTAYMQLSSPTSEDSAVYYCTRTWRGNSFDLWGQGTTLTVSS
VL: DIVMTQSPSSLTVTAGEKVTMSCKSNQSLLNSGNQKNYVTWYQQKPGQPPKLLIYWGSTRVRGVPDRFTGSGSGTDFTLTISSVQAEDLAVYYCQNDYTYPFTFGSGTKLEIKR
The term EC50 denotes the concentration at which the effect is half-maximal. Lower therefore signals higher potency in that assay. For the molecule B12, the concentration for a half-maximal effect (EC50) with human Claudin 18.2 was found to be 0.616 nM.

B13: IMAB362 (antibody, V domains shown)
VH: QVQLQQPGAELVRPGASVKLSCKASGYTFTSYWINWVKQRPGQGLEWIGNIYPSDSYTNYNQKFKDKATLTVDKSSSTAYMQLSSPTSEDSAVYYCTRSWRGNSFDYWGQGTTLTVSS
VL: DIVMTQSPSSLTVTAGEKVTMSCKSSQSLLNSGNQKNYLTWYQQKPGQPPKLLIYWASTRESGVPDRFTGSGSGTDFTLTISSVQAEDLAVYYCQNDYSYPFTFGSGTKLEIKR
Take B13: the EC50 with human Claudin 18.2 came out at 0.634 nM.

B14: 18F2-35 (antibody, human IgG1, kappa, V domains shown)
VH: QVQLQQPGAELVRPGASVKLSCKASGYTFTSFWLNWVKQRPGQGLEWIGNIYPSTSYTIYNQKFKDKATLTVDKSSSTAYMQLSSPTSEDSAVYYCTRTWRGNSFDYWGQGTTLTVSS
VL: DIVMTQSPSSLTVTAGEKVTMSCKSSQSLLNSGNQKNYLTWYQQKPGQPPKLLIYWGSTRVRGVPDRFTGSGSGTDFTLTISSVQAEDLAVYYCQNDYTYPFTFGSGTKLEIKR
B14 had an EC50 with human Claudin 18.2 of 0.509 nM.

B15: 18F2-66 (antibody, human IgG1, kappa, V domains shown)
VH: QVQLQQPGAELVRPGASVKLSCKASGYTFTSFWINWVKQRPGQGLEWIGNIYPSASYTVYNQKFKDKATLTVDKSSSTAYMQLSSPTSEDSAVYYCTRTWRGNSFDLWGQGTTLTVSS
VL: DIVMTQSPSSLTVTAGEKVTMSCKSSQSLLNSGNQKNYVTWYQQKPGQPPKLLIYWSSTRSFGVPDRFTGSGSGTDFTLTISSVQAEDLAVYYCQNDYTYPFTFGSGTKLEIKR
B15 returned an EC50 with human Claudin 18.2 of 0.524 nM.

B16: 18F2 (antibody, human IgG1, kappa, V domains shown)
VH: QVQLQQPGAELVRPGASVKLSCKASGYTFTSFWVNWVKQRPGQGLEWIGNIYPSTSYTVYNQKFKDKATLTVDKSSSTAYMQLSSPTSEDSAVYYCTRSWRGNSFDHWGQGTTLTVSS
VL: DIVMTQSPSSLTVTAGEKVTMSCKSSQSLLNSGNQKNYVTWYQQKPGQPPKLLIYWGSTRVRGVPDRFTGSGSGTDFTLTISSVQAEDLAVYYCQNDYTYPFTFGSGTKLEIKR
notes: Chimeric full length antibody, mouse variable regions with human IgG1/kappa constant regions; also called clone 18F2; parent clone 18F2
On to B16, for which the concentration for a half-maximal effect (EC50) with human Claudin 18.2 stood at 1.26 nM.

B17: 18F2-30 (antibody, human IgG1, kappa, V domains shown)
VH: QVQLQQPGAELVRPGASVKLSCKASGYTFTSFWLNWVKQRPGQGLEWIGNIYPSTSYTVYNQKFKDKATLTVDKSSSTAYMQLSSPTSEDSAVYYCTRTWRGNSFDYWGQGTTLTVSS
VL: DIVMTQSPSSLTVTAGEKVTMSCKSSQSLLNSGNQKNYVTWYQQKPGQPPKLLIYWGSTRSTGVPDRFTGSGSGTDFTLTISSVQAEDLAVYYCQNDYTYPFTFGSGTKLEIKR
In the experiment with human Claudin 18.2, B17 showed a 50% effective concentration (EC50) of 0.562 nM.
